The experiment concerns the target CD20 polypeptide (safety switch) expressed on transduced T cells (human) (UniProt P11836). In words: cell-based or functional assay.
Chain of UniProt P11836 (P11836 whole entry): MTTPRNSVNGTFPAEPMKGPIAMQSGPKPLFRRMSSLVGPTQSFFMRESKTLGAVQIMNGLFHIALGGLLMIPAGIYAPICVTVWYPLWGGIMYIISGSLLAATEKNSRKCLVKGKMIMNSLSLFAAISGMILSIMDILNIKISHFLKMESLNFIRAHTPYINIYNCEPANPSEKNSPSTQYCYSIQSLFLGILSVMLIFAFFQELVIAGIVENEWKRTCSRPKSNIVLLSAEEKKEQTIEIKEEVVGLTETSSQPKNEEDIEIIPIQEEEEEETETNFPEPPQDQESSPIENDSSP

Take Rituximab (Rituxan®, Biogen) (antibody): the 4-hour chromium release assay on IL13Rα2-CAR^CD20 T cells turned out to be 70%; the decrease in CD20+ cell number by flow cytometry after 1 hour (rituximab + complement vs rituximab alone) was over 30%; the killing of CD123-CAR T cells by rituximab and complement was 80%.

The values above are taken from patent US20220195007A1.
